The values below come from publication PMC10786891, “Massively parallel profiling of RNA-targeting CRISPR-Cas13d”.

The chains are these.
T1: EsCas13d, nuclease-dead (Eubacterium siraeum, UniProt B0MS50, R295A;H300A;R849A;H854A)
T1 sequence: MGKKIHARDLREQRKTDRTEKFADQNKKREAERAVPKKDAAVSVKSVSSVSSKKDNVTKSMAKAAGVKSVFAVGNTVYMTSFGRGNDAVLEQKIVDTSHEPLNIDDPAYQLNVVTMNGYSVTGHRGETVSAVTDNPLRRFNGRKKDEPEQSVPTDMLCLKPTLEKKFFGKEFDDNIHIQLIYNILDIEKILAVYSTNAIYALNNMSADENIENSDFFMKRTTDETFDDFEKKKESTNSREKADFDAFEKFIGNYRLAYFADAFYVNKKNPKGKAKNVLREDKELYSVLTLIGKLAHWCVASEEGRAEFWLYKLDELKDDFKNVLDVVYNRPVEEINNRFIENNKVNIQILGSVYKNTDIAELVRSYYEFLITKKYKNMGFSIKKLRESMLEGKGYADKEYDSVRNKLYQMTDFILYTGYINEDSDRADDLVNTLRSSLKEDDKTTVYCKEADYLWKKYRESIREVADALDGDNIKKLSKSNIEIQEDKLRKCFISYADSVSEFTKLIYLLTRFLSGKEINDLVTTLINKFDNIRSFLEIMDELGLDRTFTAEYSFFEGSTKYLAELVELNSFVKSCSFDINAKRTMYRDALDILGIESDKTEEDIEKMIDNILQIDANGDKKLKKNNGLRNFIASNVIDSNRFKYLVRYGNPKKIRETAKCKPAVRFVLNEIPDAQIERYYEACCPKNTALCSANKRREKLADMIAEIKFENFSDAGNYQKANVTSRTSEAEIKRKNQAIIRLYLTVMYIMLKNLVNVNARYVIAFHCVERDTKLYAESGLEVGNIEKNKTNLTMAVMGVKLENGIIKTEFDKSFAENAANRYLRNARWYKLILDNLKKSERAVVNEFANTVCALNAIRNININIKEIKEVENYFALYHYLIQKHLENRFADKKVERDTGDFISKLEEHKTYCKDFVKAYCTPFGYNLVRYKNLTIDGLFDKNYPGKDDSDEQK

B1: target 1 A1U,C6U (mixed)
RNA 1: CACCCGUGCAAAAAUGCAGGGGUCUAAAACUGAGCGGAUAACCUCUCUAUGG
RNA 2: GGGAAUGGAUCCACAUCUACGAAUUCGUACCAUAGAGAGGUUAUCUGCUCUCCGAGAUCGGAAGAGCACACGU
B2: target 1 A1C,G12C (mixed)
RNA 1: CACCCGUGCAAAAAUGCAGGGGUCUAAAACUGAGCGGAUAACCUCUCUAUGG
RNA 2: GGGAAUGGAUCCACAUCUACGAAUUCGUACCAUAGAGAGCUUAUCCGCUCCCCGAGAUCGGAAGAGCACACGU
B3: target 1 A1G,G12C (mixed)
RNA 1: CACCCGUGCAAAAAUGCAGGGGUCUAAAACUGAGCGGAUAACCUCUCUAUGG
RNA 2: GGGAAUGGAUCCACAUCUACGAAUUCGUACCAUAGAGAGCUUAUCCGCUCGCCGAGAUCGGAAGAGCACACGU
B4: target 1 insA 3' of 19,insU 3' of 6 (mixed)
RNA 1: CACCCGUGCAAAAAUGCAGGGGUCUAAAACUGAGCGGAUAACCUCUCUAUGG
RNA 2: GGGAAUGGAUCCACAUCUACGAAUUCGUACCAUAAGAGAGGUUAUCCUGCUCACCGAGAUCGGAAGAGCACACGU
B5: target 1 insU 3' of 4,insC 3' of 3 (mixed)
RNA 1: CACCCGUGCAAAAAUGCAGGGGUCUAAAACUGAGCGGAUAACCUCUCUAUGG
RNA 2: GGGAAUGGAUCCACAUCUACGAAUUCGUACCAUAGAGAGGUUAUCCGCUUCCACCGAGAUCGGAAGAGCACACGU
B6: target 1 insA 3' of 6 (mixed)
RNA 1: CACCCGUGCAAAAAUGCAGGGGUCUAAAACUGAGCGGAUAACCUCUCUAUGG
RNA 2: GGGAAUGGAUCCACAUCUACGAAUUCGUACCAUAGAGAGGUUAUCCAGCUCACCGAGAUCGGAAGAGCACACGU
B7: target 1 insU 3' of 14,insC 3' of 10 (mixed)
RNA 1: CACCCGUGCAAAAAUGCAGGGGUCUAAAACUGAGCGGAUAACCUCUCUAUGG
RNA 2: GGGAAUGGAUCCACAUCUACGAAUUCGUACCAUAGAGAUGGUUCAUCCGCUCACCGAGAUCGGAAGAGCACACGU
B8: target 1 insG 3' of 18,insG 3' of 1 (mixed)
RNA 1: CACCCGUGCAAAAAUGCAGGGGUCUAAAACUGAGCGGAUAACCUCUCUAUGG
RNA 2: GGGAAUGGAUCCACAUCUACGAAUUCGUACCAUAGGAGAGGUUAUCCGCUCAGCCGAGAUCGGAAGAGCACACGU
B9: target 1 insC 3' of 22,insU 3' of 1 (mixed)
RNA 1: CACCCGUGCAAAAAUGCAGGGGUCUAAAACUGAGCGGAUAACCUCUCUAUGG
RNA 2: GGGAAUGGAUCCACAUCUACGAAUUCGUACCCAUAGAGAGGUUAUCCGCUCAUCCGAGAUCGGAAGAGCACACGU
B10: target 1 insG 3' of 9,insA 3' of 8 (mixed)
RNA 1: CACCCGUGCAAAAAUGCAGGGGUCUAAAACUGAGCGGAUAACCUCUCUAUGG
RNA 2: GGGAAUGGAUCCACAUCUACGAAUUCGUACCAUAGAGAGGUUAGUACCGCUCACCGAGAUCGGAAGAGCACACGU
B11: target 1 G12C (mixed)
RNA 1: CACCCGUGCAAAAAUGCAGGGGUCUAAAACUGAGCGGAUAACCUCUCUAUGG
RNA 2: GGGAAUGGAUCCACAUCUACGAAUUCGUACCAUAGAGAGCUUAUCCGCUCACCGAGAUCGGAAGAGCACACGU
B12: target 1 C6G,A9U (mixed)
RNA 1: CACCCGUGCAAAAAUGCAGGGGUCUAAAACUGAGCGGAUAACCUCUCUAUGG
RNA 2: GGGAAUGGAUCCACAUCUACGAAUUCGUACCAUAGAGAGGUUUUCGGCUCACCGAGAUCGGAAGAGCACACGU
B13: target 1 insA 3' of 15,insC 3' of 12 (mixed)
RNA 1: CACCCGUGCAAAAAUGCAGGGGUCUAAAACUGAGCGGAUAACCUCUCUAUGG
RNA 2: GGGAAUGGAUCCACAUCUACGAAUUCGUACCAUAGAGAAGGCUUAUCCGCUCACCGAGAUCGGAAGAGCACACGU
B14: target 1 A9C,C22U (mixed)
RNA 1: CACCCGUGCAAAAAUGCAGGGGUCUAAAACUGAGCGGAUAACCUCUCUAUGG
RNA 2: GGGAAUGGAUCCACAUCUACGAAUUCGUAUCAUAGAGAGGUUCUCCGCUCACCGAGAUCGGAAGAGCACACGU
B15: target 1 insU 3' of 18,insG 3' of 9 (mixed)
RNA 1: CACCCGUGCAAAAAUGCAGGGGUCUAAAACUGAGCGGAUAACCUCUCUAUGG
RNA 2: GGGAAUGGAUCCACAUCUACGAAUUCGUACCAUAUGAGAGGUUAGUCCGCUCACCGAGAUCGGAAGAGCACACGU
B16: target 1 complement block 3-12 (mixed)
RNA 1: CACCCGUGCAAAAAUGCAGGGGUCUAAAACUGAGCGGAUAACCUCUCUAUGG
RNA 2: GGGAAUGGAUCCACAUCUACGAAUUCGUACCAUAGAGAGCAAUAGGCGACACCGAGAUCGGAAGAGCACACGU
B17: target 1 U11A,G12C (mixed)
RNA 1: CACCCGUGCAAAAAUGCAGGGGUCUAAAACUGAGCGGAUAACCUCUCUAUGG
RNA 2: GGGAAUGGAUCCACAUCUACGAAUUCGUACCAUAGAGAGCAUAUCCGCUCACCGAGAUCGGAAGAGCACACGU
B18: target 1 insG 3' of 18,insC 3' of 1 (mixed)
RNA 1: CACCCGUGCAAAAAUGCAGGGGUCUAAAACUGAGCGGAUAACCUCUCUAUGG
RNA 2: GGGAAUGGAUCCACAUCUACGAAUUCGUACCAUAGGAGAGGUUAUCCGCUCACCCGAGAUCGGAAGAGCACACGU
B19: target 1 insC 3' of 18,insU 3' of 7 (mixed)
RNA 1: CACCCGUGCAAAAAUGCAGGGGUCUAAAACUGAGCGGAUAACCUCUCUAUGG
RNA 2: GGGAAUGGAUCCACAUCUACGAAUUCGUACCAUACGAGAGGUUAUCUCGCUCACCGAGAUCGGAAGAGCACACGU
B20: target 1 insG 3' of 16,insU 3' of 9 (mixed)
RNA 1: CACCCGUGCAAAAAUGCAGGGGUCUAAAACUGAGCGGAUAACCUCUCUAUGG
RNA 2: GGGAAUGGAUCCACAUCUACGAAUUCGUACCAUAGAGGAGGUUAUUCCGCUCACCGAGAUCGGAAGAGCACACGU
B21: target 1 A20U,C22A (mixed)
RNA 1: CACCCGUGCAAAAAUGCAGGGGUCUAAAACUGAGCGGAUAACCUCUCUAUGG
RNA 2: GGGAAUGGAUCCACAUCUACGAAUUCGUAACUUAGAGAGGUUAUCCGCUCACCGAGAUCGGAAGAGCACACGU
B22: target 1 U8A,G13U (mixed)
RNA 1: CACCCGUGCAAAAAUGCAGGGGUCUAAAACUGAGCGGAUAACCUCUCUAUGG
RNA 2: GGGAAUGGAUCCACAUCUACGAAUUCGUACCAUAGAGAUGUUAACCGCUCACCGAGAUCGGAAGAGCACACGU
B23: target 1 insG 3' of 19,insC 3' of 9 (mixed)
RNA 1: CACCCGUGCAAAAAUGCAGGGGUCUAAAACUGAGCGGAUAACCUCUCUAUGG
RNA 2: GGGAAUGGAUCCACAUCUACGAAUUCGUACCAUGAGAGAGGUUACUCCGCUCACCGAGAUCGGAAGAGCACACGU
B24: target 1 insA 3' of 19,insU 3' of 13 (mixed)
RNA 1: CACCCGUGCAAAAAUGCAGGGGUCUAAAACUGAGCGGAUAACCUCUCUAUGG
RNA 2: GGGAAUGGAUCCACAUCUACGAAUUCGUACCAUAAGAGAGUGUUAUCCGCUCACCGAGAUCGGAAGAGCACACGU
B25: target 1 insA 3' of 21,insA 3' of 12 (mixed)
RNA 1: CACCCGUGCAAAAAUGCAGGGGUCUAAAACUGAGCGGAUAACCUCUCUAUGG
RNA 2: GGGAAUGGAUCCACAUCUACGAAUUCGUACCAAUAGAGAGGAUUAUCCGCUCACCGAGAUCGGAAGAGCACACGU
B26: target 1 insC 3' of 17,insA 3' of 17 (mixed)
RNA 1: CACCCGUGCAAAAAUGCAGGGGUCUAAAACUGAGCGGAUAACCUCUCUAUGG
RNA 2: GGGAAUGGAUCCACAUCUACGAAUUCGUACCAUAGCAAGAGGUUAUCCGCUCACCGAGAUCGGAAGAGCACACGU
B27: target 1 insU 3' of 15,insA 3' of 13 (mixed)
RNA 1: CACCCGUGCAAAAAUGCAGGGGUCUAAAACUGAGCGGAUAACCUCUCUAUGG
RNA 2: GGGAAUGGAUCCACAUCUACGAAUUCGUACCAUAGAGUAGAGUUAUCCGCUCACCGAGAUCGGAAGAGCACACGU

In the data set the target is T1, EsCas13d, nuclease-dead. The data set is described as follows: crRNA (strand 1, pre-loaded); Mg2+; 40 mM Tris-HCl pH 7.5, 150 mM NaCl, 6 mM MgCl2, 1 mM DTT, 0.1% Tween-20, 0.2 mg/ml BSA; 25 C; 10 min per concentration, then washed. The following applies: tags: His6-TwinStrep-SUMO cleaved; N-terminal SNAP kept (SNAP-Surface 488); label: 3' end held by stalled T7 RNA polymerase.
As usually defined, the Kd is the constant that tells how readily two partners part at equilibrium. A lower Kd goes with tighter binding. B1 had a Kd of 11.4 ± 0.9 nM. The same measure for B2: 19 ± 2.1 nM; for B3: 12.2 ± 0.9 nM; for B4: 22.9 ± 1.6 nM. Molecule B5 gave an equilibrium dissociation constant (Kd) of 76 ± 22 nM. B6: the dissociation constant (Kd) turned out to be 15 ± 1.3 nM. B7 showed a Kd of 39 ± 10 nM. On to B8, for which the Kd was 55 ± 10 nM. Take B9: the Kd is 20.6 ± 1.9 nM. For the molecule B10, binding was put at a Kd of 19.6 ± 1 nM. The same measure for B11: 8.3 ± 0.7 nM; for B12: 6.92 ± 0.27 nM. B13: the Kd is 31 ± 6 nM. Then B14, with 54 ± 12 nM. Then B15, with 67 ± 10 nM; and B16, with 14.4 ± 0.5 nM. For the molecule B17, the Kd was found to be 7.59 ± 0.28 nM. B18 had a Kd of 52 ± 4 nM. Regarding B19, the affinity, expressed as Kd, was 67 ± 5 nM. Then B20, with 28.9 ± 2.2 nM; and B21, with 23.9 ± 2.8 nM; and B22, with 53 ± 8 nM.

The molecule B23 yielded a Kd of 78 ± 10 nM. B24 showed a Kd of 35 ± 13 nM. Compared with the last molecule, the Kd is about 2.2-fold lower. Molecule B25 showed a Kd of 48 ± 5 nM. Then B26, with 20.3 ± 1.5 nM.

As for B27, the Kd turned out to be 10.2 ± 0.7 nM. Compared with the last molecule, the Kd is about 2-fold lower.
